Where two headings read alike, the source gives them in different places. Non-standard residues stand in square brackets, D forms with d. No end group written: not given here. Alb = not defined here
T1: hu-IL-2Rγc subunit (human), P31785
T1 chain: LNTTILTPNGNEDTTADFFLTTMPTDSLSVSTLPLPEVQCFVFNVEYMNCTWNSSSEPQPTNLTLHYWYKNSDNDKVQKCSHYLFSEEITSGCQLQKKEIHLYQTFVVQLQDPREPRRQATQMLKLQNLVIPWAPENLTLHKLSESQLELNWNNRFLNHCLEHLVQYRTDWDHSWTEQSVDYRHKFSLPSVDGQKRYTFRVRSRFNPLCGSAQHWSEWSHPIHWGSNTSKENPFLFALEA

T2: hu-IL-2Rγc subunit (human, UniProt P31785 23-262, limits assumed)
T2 construct: also called human interleukin-2 receptor subunit γ; CD132
T2 sequence (looked up): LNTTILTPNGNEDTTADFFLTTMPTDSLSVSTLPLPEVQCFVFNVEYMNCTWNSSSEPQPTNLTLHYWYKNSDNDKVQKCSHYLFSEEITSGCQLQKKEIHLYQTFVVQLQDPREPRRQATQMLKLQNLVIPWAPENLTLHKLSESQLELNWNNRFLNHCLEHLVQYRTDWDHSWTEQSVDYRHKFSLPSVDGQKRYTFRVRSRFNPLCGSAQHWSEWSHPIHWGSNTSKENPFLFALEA


Experiments:
[1] = target: T1, hu-IL-2Rγc subunit (human), P31785
[2] = target: T1, hu-IL-2Rγc subunit (human), P31785; assay: phage ELISA competition assay
[3] = target: T2, hu-IL-2Rγc subunit; assay: phage ELISA competition assay
[4] = target: T2, hu-IL-2Rγc subunit

Binder | IC50 [1] [µM] | IC50 [2] [µM] | IC50 [3] [µM] | IC50 [4] [µM]
GLEIACEDWYGVELCWLRRA (modifications not checked) [SEQ ID NO 681] | < 100 | < 10 | – | –
GYGVLCQEWQGVELCWPVQREAGV (modifications not checked) [SEQ ID NO 682] | < 100 | < 10 | – | –
PYGVVCQDWAGVELCWVENR (modifications not checked) [SEQ ID NO 683] | < 100 | < 10 | – | –
INCQTWNGVELCWVDEGLYQ (modifications not checked) [SEQ ID NO 685] | < 100 | < 10 | – | –
RVQVECEDWNGVELCWPVRV (modifications not checked) [SEQ ID NO 687] | < 100 | < 10 | – | –
DRQVVCEEWDGVELCWIEES (modifications not checked) [SEQ ID NO 688] | < 100 | < 10 | – | –
RPEVVCQEWEGVELCWISPL (modifications not checked) [SEQ ID NO 690] | < 100 | < 10 | – | –
RLGVECQEWEGVDLCWISAF (modifications not checked) [SEQ ID NO 691] | < 100 | < 10 | – | –
TDEVSCQEWEGVELCWIERQ (modifications not checked) [SEQ ID NO 694] | < 100 | < 10 | – | –
PVEVRCQEWEGVELCWVVGI (modifications not checked) [SEQ ID NO 695] | < 100 | < 10 | – | –
GPEVVCEEFNRVELCWVEYN (modifications not checked) [SEQ ID NO 696] | < 100 | < 10 | – | –
KYIVECQEWGGVELCWPEMV (modifications not checked) [SEQ ID NO 697] | < 100 | < 10 | – | –
VVCQEWEGVELCWQTGPGAHA (modifications not checked) [SEQ ID NO 699] | < 100 | < 10 | – | –
IVCEEYNGVELCWVETSVKP (modifications not checked) [SEQ ID NO 700] | < 100 | < 10 | – | –
EQQVVCQEWNGVELCWIEAG (modifications not checked) [SEQ ID NO 701] | < 100 | < 10 | – | –
QLGVECQNWRGVELCWVSEI (modifications not checked) [SEQ ID NO 702] | < 100 | < 10 | – | –
TAEVVCQEWDGVELCWIEVL (modifications not checked) [SEQ ID NO 703] | < 100 | < 10 | – | –
SPSIVCEEWAGVELCWVDYS (modifications not checked) [SEQ ID NO 704] | < 100 | < 10 | – | –
AVCQDWYGVELCWCMQDILD (modifications not checked) [SEQ ID NO 705] | < 100 | < 10 | – | –

Binder | IC50 [1] [µM] | IC50 [2] [µM] | IC50 [3] [µM] | IC50 [4] [µM]
VECEEWGGVELCWLADEVMW (modifications not checked) [SEQ ID NO 706] | < 100 | < 10 | – | –
HSTVICQDWDGVELCWIEND (modifications not checked) [SEQ ID NO 707] | < 100 | < 10 | – | –
SVEVVCEEWHGVELCWPVFI (modifications not checked) [SEQ ID NO 709] | < 100 | < 10 | – | –
RWAVSCQDWQGIELCWPEWD (modifications not checked) [SEQ ID NO 710] | < 100 | < 10 | – | –
RTEVECEDWEGVELCWL (modifications not checked) [SEQ ID NO 713] | < 100 | < 10 | – | –
IECDTSYGVYICWQ [SEQ ID NO 637] | – | – | < 10 | < 100
LALRKEVVCQEYYGVELCWI [SEQ ID NO 641] | – | – | < 10 | < 100
MVNREVVVCEDWYGVELCWQ [SEQ ID NO 643] | – | – | < 10 | < 100
DVECVDWGGVELCWH [SEQ ID NO 646] | – | – | < 10 | < 100
AHSRQEVVCEEWYGVELCWI [SEQ ID NO 649] | – | – | < 10 | < 100
YSRELYVQCEDWEGVELCWI [SEQ ID NO 651] | – | – | < 10 | < 100
RLLNSVVECLDWEGVELCWQ [SEQ ID NO 659] | – | – | < 10 | < 100
VVCQEWEGVELCWC [SEQ ID NO 661] | – | – | < 10 | < 100
EGSTTTIECEEWAGVELCWL [SEQ ID NO 664] | – | – | < 10 | < 100
RSDDEVVVCQEWEGVELCWQ [SEQ ID NO 666] | – | – | < 10 | < 100
IECEEWAGVELCWL [SEQ ID NO 667] | – | – | < 10 | < 100
FAHHGVVECQEWYGVELCWQ [SEQ ID NO 670] | – | – | < 10 | < 100
WSKKAEVVCEEWGGVEFCWI [SEQ ID NO 672] | – | – | < 10 | < 100
RSNQTVVECQDWEGVELCWQ [SEQ ID NO 673] | – | – | < 10 | < 100

Binder | IC50 [1] [µM] | IC50 [2] [µM] | IC50 [3] [µM] | IC50 [4] [µM]
VVCQEWEGVELCWYAGECMQ [SEQ ID NO 674] | – | – | < 10 | < 100
ILCQEFEGVELCWLEESLAE [SEQ ID NO 675] | – | – | < 10 | < 100
KLTVECQDWDGVELCWVGVE [SEQ ID NO 684] | – | – | < 10 | < 100
VVCQEWEGVELCWVEPPLLP [SEQ ID NO 686] | – | – | < 10 | < 100
KTTVACQDWGGVELCWVERV [SEQ ID NO 689] | – | – | < 10 | < 100
KPVVVCEEWQGVELCWLEIQ [SEQ ID NO 692] | – | – | < 10 | < 100
IECEEWAGVELCWL [SEQ ID NO 716] | – | – | < 10 | –
GGDCSMWEGVELCWGG [SEQ ID NO 737] | – | – | – | < 100
GGVMCERWQGVELCWLGG [SEQ ID NO 738] | – | – | – | < 100
GGVGIECEEWAGVELCWLGG [SEQ ID NO 739] | – | – | – | < 100
GGTWNMSELECQDWNGVEICWHGG [SEQ ID NO 740] | – | – | – | < 100
GGRTEVECEDWEGVELCWLGG [SEQ ID NO 741] | – | – | – | < 100
GGRTGVECQDWHGVELCWPVWEGG [SEQ ID NO 742] | – | – | – | < 100
GGVVCQDWEGVXLCWQGG (not fully specified; Abu at residue 12, as printed in the table) [SEQ ID NO 743] | – | – | – | < 100
GGVVCQDWEGV[Alb]LCWQGG (not fully specified; printed as G G V V C Q D W E G V Alb L C W Q G G; cysteine pairing not given here; reading uncertain) [SEQ ID NO 744] | – | – | – | < 100
GGVVCQDWEGVSLCWQGG [SEQ ID NO 746] | – | – | – | < 100
GGVVCQDWEGVGLCWQGG [SEQ ID NO 747] | – | – | – | < 100
GGVVCQDWEGVELCWQPPA (not fully specified (bridges); cysteine pairing not given here) [SEQ ID NO 748] | – | – | – | < 100
GGVVCQDWEGVELCWQGPPA [SEQ ID NO 749] | – | – | – | < 100

Source: patent publication US20240101959A1, “USE OF IL-2R-BETA-GAMMA AGONIST PEPTIDES IN CELL MANUFACTURING” (MEDIKINE, INC., priority 2022, published 2024)
